Experimental data: patent US20110086806A1 (published 2011)
Substitutions are numbered along the chain they refer to. Names and notes keep the numbering of the source.

T1: recombinant human IL-23R/Fc chimera (R&D Systems) (human, UniProt Q5VWK5 24-355)
T1 construct: Bought; also called rhIL23RFc
T1 sequence (looked up): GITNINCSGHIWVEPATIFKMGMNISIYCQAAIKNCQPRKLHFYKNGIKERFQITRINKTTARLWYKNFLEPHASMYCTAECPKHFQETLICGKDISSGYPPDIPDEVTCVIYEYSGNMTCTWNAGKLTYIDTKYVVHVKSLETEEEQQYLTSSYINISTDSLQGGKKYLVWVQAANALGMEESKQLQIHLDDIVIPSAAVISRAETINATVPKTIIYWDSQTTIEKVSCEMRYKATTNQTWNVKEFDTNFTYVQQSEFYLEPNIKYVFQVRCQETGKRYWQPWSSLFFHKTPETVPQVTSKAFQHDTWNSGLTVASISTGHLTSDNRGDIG

B1: 105-08-1D2 ATRIMER complex (designed binder)
chain: EPPTQKPKKIVNAKKDVVNTKMFEELKSRLDTLAQEVALLKEQQALQTVCLKGTKVHMKCFLAFTQTKTFHEASEDCISRGGTLSTPQTGSENDALYEYLRQSVGNEAEIWLGLNGSPVTDTWVDMTGARIAYKNWETEITAQPDGGFGYFGENCAVLSGAANGKWFDKRCRDQLPYICQFGIV
notes: not shown: C-terminal tag: His/Myc (pANA4) or HA-StrepII (pANA10)
B2: 105-08-1B7 ATRIMER complex (designed binder)
chain: B1 chain with V119R
B3: 105-08-1A10 ATRIMER complex (designed binder)
chain: B1 chain with P118S, V119I, F148W
notes: as for B1
B4: 105-08-1B1 ATRIMER complex (designed binder)
chain: B1 chain with V119R, D121Q
modifications: ATRIMER complex: homotrimer of three copies of this chain, joined by the tetranectin coiled coil
notes: not shown: C-terminal tag: Myc/His (pANA4) or HA-StrepII (pANA10)
B5: 105-08-1C11 ATRIMER complex (designed binder)
chain: B1 chain with P118S, V119R
modifications: ATRIMER complex: homotrimer of three copies of this chain, joined by the tetranectin coiled coil
notes: as for B4
B6: 105-08-1D1 ATRIMER complex (designed binder, not shown: small tags and cut ends)
chain: B1 chain with P118A, V119L, F148W
B7: 105-08-1C3 ATRIMER complex (designed binder)
chain: B1 chain with P118Q, V119L, F148W
B8: 105-08-1B10 ATRIMER complex (designed binder)
chain: B1 chain with P118R, V119H
notes: as for B1
B9: 105-08-1C9 ATRIMER complex (designed binder)
chain: B1 chain with P118T, V119L
B10: 105-08-1C10 ATRIMER complex (designed binder)
chain: B1 chain with P118S, D121N, F148W
B11: 105-08-1C2 ATRIMER complex (designed binder)
chain: B1 chain with P118R, V119A
B12: 105-08-1A7 ATRIMER complex (designed binder)
chain: B1 chain with P118V, V119R, D121N
modifications: ATRIMER complex: homotrimer of three copies of this chain, joined by the tetranectin coiled coil
notes: as for B4
B13: 105-08-1C6 ATRIMER complex (designed binder)
chain: B1 chain with P118A, V119L
B14: 105-08-1C4 ATRIMER complex (designed binder, not shown: small tags and cut ends)
chain: B1 chain with P118T, V119L, F148W
B15: 001-69.4G8 ATRIMER complex, mammalian-cell produced (designed binder, not shown: small tags and cut ends)
chain: B1 chain with P118R, V119R, T120S, D121G, T122V, Y150V
modifications: Homotrimer of this chain (ATRIMER complex); produced in HEK293 cells, glycosylation possible.
notes: Mammalian-cell produced material; also called 4G8 m; 4G8 TN m
B16: 056-41.B12F ATRIMER complex (designed binder)
chain: B1 chain with P118V, V119R, T120S, D121A, F148Y, Y150V
modifications: Homotrimer of this chain (ATRIMER complex).
notes: not shown: A possible extra N-terminal Ser from the ompA junction is left out
B17: 001-89.C3C ATRIMER complex (designed binder)
chain: B1 chain with G116A, S117N, P118R, V119R, T120R, D121T, T122M, F148M, Y150V, F151W
notes: as for B1
B18: 001-87.A5F ATRIMER complex (designed binder)
chain: B1 chain with P118V, V119R, T120S, D121A
modifications: Homotrimer of this chain (ATRIMER complex).
notes: also called Atrimer A5F; not shown: A possible extra N-terminal Ser from the ompA junction is left out
B19: 001-87.A4A ATRIMER complex (designed binder)
chain: EPPTQKPKKIVNAKKDVVNTKMFEELKSRLDTLAQEVALLKEQQALQTVCLKGTKVHMKCFLAFTQTKTFHEASEDCISRGGTLSTPQTGSENDALYEYLRQSVGNEAEIWLGLNWTLAKNLWVDMTGARIAYKNWETEITAQPDGGLFGRGENCAVLSGAANGKWFDKRCRDQLPYICQFGIV
notes: as for B1
B20: 056-41.B9B ATRIMER complex (designed binder)
chain: B1 chain with G116A, S117P, V119D, T120L, D121G, T122L, F148W, Y150V, F151W
notes: as for B1
B21: 001-69.4D4 monomeric CTLD (designed binder)
chain: ALQTVCLKGTKVHMKCFLAFTQTKTFHEASEDCISRGGTLSTPQTGSENDALYEYLRQSVGNEAEIWLGLNGSVRGRTWVDMTGARIAYKNWETEITAQPDGGIGVWGENCAVLSGAANGKWFDKRCRDQLPYICQFGIV
notes: C-terminal tag not specified
B22: 001-89.C7F monomeric CTLD (designed binder)
chain: B21 chain with V74L, R75L, G76T, R77G, T78L, I104Y, V106A
B23: 001-69.4F5 monomeric CTLD (designed binder)
chain: ALQTVCLKGTKVHMKCFLAFTQTKTFHEASEDCISRGGTLSTPQTGSENDALYEYLRQSVGNEAEIWLGLNVLGWRREWVDMTGARIAYKNWETEITAQPDGGLVMPMENCAVLSGAANGKWFDKRCRDQLPYICQFGIV
notes: C-terminal tag not specified; not shown: Also the vector's N-terminal AGGGS after the pelB signal
B24: 001-89.C12E monomeric CTLD (designed binder)
chain: B21 chain with G72W, S73T, V74K, G76T, R77A, T78L, I104M, G105F, V106G, W107M
notes: C-terminal tag not specified
B25: 001-69.3C2 monomeric CTLD (designed binder)
chain: B21 chain with G72T, S73N, R75T, G76R, R77T, T78L, I104L
notes: C-terminal tag not specified
B26: 001-87.A8E monomeric CTLD (designed binder)
chain: B21 chain with G72A, S73N, V74P, R75A, G76Q, R77D, T78L, I104F
notes: C-terminal tag not specified
B27: 001-87.A4A monomeric CTLD (designed binder)
chain: ALQTVCLKGTKVHMKCFLAFTQTKTFHEASEDCISRGGTLSTPQTGSENDALYEYLRQSVGNEAEIWLGLNWTLAKNLWVDMTGARIAYKNWETEITAQPDGGLFGRGENCAVLSGAANGKWFDKRCRDQLPYICQFGIV
notes: C-terminal tag not specified
B28: 001-87.A5F monomeric CTLD (designed binder, not shown: small tags and cut ends)
chain: B21 chain with G76S, R77A, I104F, V106Y, W107F
notes: C-terminal tag not specified
B29: 001-69.4E5 monomeric CTLD (designed binder)
chain: B21 chain with S73N, V74P, R75S, R77S, T78V, I104Y
notes: as for B23
B30: 001-69.4G8 monomeric CTLD (designed binder)
chain: B21 chain with V74R, G76S, R77G, T78V, I104F, W107F
notes: C-terminal tag not specified; not shown: C-terminal tag: 6xHis (pANA1), HA-His (pANA3) or HA-StrepII (pANA12)
B31: 001-89.C3C monomeric CTLD (designed binder)
chain: B21 chain with G72A, S73N, V74R, G76R, R77T, T78M, I104M
notes: C-terminal tag not specified
B32: 001-87.A9E monomeric CTLD (designed binder)
chain: B21 chain with V74A, R75L, G76T, R77N, I104L, V106Y
notes: C-terminal tag not specified

Molecular target: T1, recombinant human IL-23R/Fc chimera …
Assay: competition ELISA vs IL-23
Method: Assays were performed generally as follows. Individual wells in Immulon HB2 plates were incubated overnight at 4° C. with 100 μL PBS containing 100 ng of an anti-human IgG Fc (R&D MAB 110 clone 97924). Plates were washed five times with PBS/0.05% Tween 20, and wells were incubated for 1.5 h at RT with 100 μL each of PBS containing 50 ng of recombinant human IL-23R/Fc. […] Competitor was included at a final concentration of 1 μg/mL. After incubation, plates were washed as described and wells were incubated for 40 min at RT with 100 μL each of PBS containing a 1:5000 dilution of streptavidin-HRP conjugate (Pierce catalog no. 21130). After washing, wells were incubated with 100 μL each of TMB (BioFX Lab catalog no. TMBH-1000-0) for up to 30 min at RT. Reactions were stopped with an equal volume of 0.2 M sulfuric acid.

Ratio IC50 to 056-53.H4E IC50	Binder
4.3	B1
4.1	B2
4.3	B3
3.3	B4
2.8	B5
3.6	B6
3.6	B7
4.7	B8
7.4	B9
5	B10
4.1	B11
2.9	B12
2	B13
3.3	B14

Molecular target: T1, recombinant human IL-23R/Fc chimera …
Assay: SPR
Method: A Biacore 3000 biosensor (GE Healthcare) was used to evaluate the interaction of human IL-23R and receptor binders. Immobilization of an anti-human IgG Fc antibody (GE Healthcare) to the CM5 chip (GE Healthcare) was performed using standard amine coupling chemistry, and this modified surface was used to capture a recombinant human IL-23R/Fc fusion protein (R&D Systems). A low-density receptor surface, less than 200 RU, was used for all of the analyses. ATRIMER™ polypeptide complex dilutions (1-500 nM) were injected over the IL-23R surface at 30 μl/min and kinetic constants were derived from the sensorgram data using the Biaevaluation software (version 3.1, GE Healthcare). Data collection was 3 minutes for the association and 5 minutes for dissociation. The anti-human IgG surface was regenerated with a 30s pulse of 3M magnesium chloride. All sensorgrams were double-referenced against an activated and blocked flow-cell as well as buffer injections.

Ka [M⁻¹]	Kd [nM]	koff [s⁻¹]	kon [M⁻¹ s⁻¹]	Binder
2.1e+08	4.76	0.000751	158000	B15
4.47e+08	2.24	0.000545	244000	B16
1.2e+08	8.34	0.000483	57900	B17
2.19e+08	4.57	0.0007	153000	B18
1.24e+08	8.08	0.000409	50600	B19
1.94e+08	5.15	0.000478	92800	B20
6.76e+06	148	0.00419	28300	B21
6.75e+06	148	0.00531	35800	B22
4.12e+06	243	0.00571	23500	B23
5.62e+06	178	0.0074	41600	B24
5.39e+06	186	0.00741	39900	B25
7.09e+06	141	0.00757	53700	B26
5.18e+06	193	0.0229	118000	B27
4.11e+07	24.3	0.00415	170000	B28
2.82e+06	355	0.0161	45400	B29
1.83e+07	54	0.00783	143000	B30
5.34e+06	187	0.0158	84500	B31
9.29e+06	108	0.0041	38100	B32
